Read-outs that look alike come from different tables or passages of the source.
Assays:
[1] = target: 40S ribosomal subunit (rabbit reticulocyte lysate) (rabbit (endogenous in rabbit reticulocyte lysate)) (UniProt G1TM55)
[2] = target: 40S ribosomal subunit (rabbit reticulocyte lysate) (rabbit (endogenous in rabbit reticulocyte lysate)) (UniProt G1TM55); remark: listed apart in the source
[3] = target: 40S ribosomal subunit (rabbit reticulocyte lysate) (rabbit (endogenous in rabbit reticulocyte lysate)) (UniProt G1TM55); remark: listed apart in the source
[4] = target: 40S ribosomal subunit (rabbit reticulocyte lysate) (rabbit (endogenous in rabbit reticulocyte lysate)) (UniProt G1TM55); remark: listed apart in the source

“MBP-eIF2A-His6-FLAG (from UniProt Q9BY44-1 1-585) (natural protein)” showed an in vitro translation of nLuc mRNA in 20% RRL, titration of recombinant protein (0-3.4 μM); IC50 of inhibition of translation [1] of 370 nM, an in vitro translation of CrPV IGR IRES nLuc mRNA in RRL, titration (0-3.4 μM); IC50 of inhibition of translation [2] of 630 nM and an in vitro translation of EMCV IRES nLuc mRNA in RRL, titration (0-3.4 μM); IC50 of inhibition of translation [2] of 690 nM. It also gave an in vitro translation of HCV IRES nLuc mRNA in RRL, titration (0-3.4 μM); IC50 of inhibition of translation [2] of 490 nM and an in vitro translation of PV IRES nLuc mRNA in RRL, titration (0-3.4 μM); IC50 of inhibition of translation [2] of 840 nM.
In the case of “MBP-eIF2A-His6 (from UniProt Q9BY44-1 1-585) (natural protein)”, the in vitro translation of nLuc mRNA in 20% RRL, titration of recombinant protein (0-3.4 μM); IC50 of inhibition of translation [3] is reported as 190 nM.
“tag-less eIF2A (from UniProt Q9BY44-1 1-585) (natural protein)” showed an in vitro translation of nLuc mRNA in 20% RRL, titration of recombinant protein (0-3.4 μM); IC50 of inhibition of translation [4] of 130 nM.

From publication PMC10570035
